Results reported in the supplement of paper PMC11246515.
± gives the standard deviation of the averaged measurements.

Assay: total protein half-life in vivo (active degradation + dilution); higher = more stable protein
[1] = E. coli NCM3722 delta-clpP delta-lon delta-hslV, growth: N-lim chemostat, doubling time 6 h
[2] = E. coli NCM3722 delta-clpP, growth: N-lim chemostat, doubling time 6 h
[3] = E. coli NCM3722 delta-hslV, growth: N-lim chemostat, doubling time 6 h
[4] = E. coli NCM3722 delta-lon, growth: N-lim chemostat, doubling time 6 h
[5] = E. coli NCM3722 delta-smpB, growth: N-lim chemostat, doubling time 6 h
[6] = wild type E. coli NCM3722, growth: C-lim chemostat, doubling time 3 h
[7] = wild type E. coli NCM3722, growth: C-lim chemostat, doubling time 6 h
[8] = wild type E. coli NCM3722, growth: C-lim chemostat, doubling time 12 h
[9] = wild type E. coli NCM3722, growth: N-lim chemostat, doubling time 6 h
[10] = wild type E. coli NCM3722, growth: N-lim chemostat, doubling time 12 h
[11] = wild type E. coli NCM3722, growth: P-lim chemostat, doubling time 6 h
[12] = wild type E. coli NCM3722, growth: P-lim chemostat, doubling time 12 h

Sequence	total protein half-life in vivo [1] [h]	total protein half-life in vivo [2] [h]	total protein half-life in vivo [3] [h]	total protein half-life in vivo [4] [h]	total protein half-life in vivo [5] [h]	total protein half-life in vivo [6] [h]	total protein half-life in vivo [7] [h]	total protein half-life in vivo [8] [h]	total protein half-life in vivo [9] [h]	total protein half-life in vivo [10] [h]	total protein half-life in vivo [11] [h]	total protein half-life in vivo [12] [h]
MQVSVETTQGLGRRVTITIAADSIETAVKSELVNVAKKVRIDGFRKGKVPMNIVAQRYGASVRQDVLGDLMSRNFIDAIIKEKINPAGAPTYVPGEYKLGEDFTYSVEFEVYPEVELQGLEAIEVEKPIVEVTDADVDGMLDTLRKQQATWKEKDGAVEAEDRVTIDFTGSVDGEEFEGGKASDFVLAMGQGRMIPGFEDGIKGHKAGEEFTIDVTFPEEYHAENLKGKAAKFAINLKKVEERELPELTAEFIKRFGVEDGSVEGLRAEVRKNMERELKSAIRNRVKSQAIEGLVKANDIDVPAALIDSEIDVLRRQAAQRFGGNEKQALELPRELFEEQAKRRVVVGLLLGEVIRTNELKADEERVKGLIEEMASAYEDPKEVIEFYSKNKELMDNMRNVALEEQAVEAVLAKAKVTEKETTFNELMNQQA [P0A850]	6.11 ± 0.15	5.78 ± 0.82	5.67 ± 0.022	6 ± 0.012	4.96 ± 0.061	3.12 ± 0.18	5.738 ± 0.013	10.4 ± 0.89	5.35 ± 0.36	9.03 ± 0.57	5.01 ± 0.23	9.5 ± 0.3
MIVTIVGWLVLFVFLPNLMIIGTSFLTRDDASFVKMVFTLDNYTRLLDPLYFEVLLHSLNMALIATLACLVLGYPFAWFLAKLPHKVRPLLLFLLIVPFWTNSLIRIYGLKIFLSTKGYLNEFLLWLGVIDTPIRIMFTPSAVIIGLVYILLPFMVMPLYSSIEKLDKPLLEAARDLGASKLQTFIRIIIPLTMPGIIAGCLLVMLPAMGLFYVSDLMGGAKNLLIGNVIKVQFLNIRDWPFGAATSITLTIVMGLMLLVYWRASRLLNKKVELE [P0AFK4]	4.04 ± 3				5.57 ± 0.42		5.93	9.29 ± 5.5	5.03		2.09	6.6
MSEYRRYYIKGGTWFFTVNLRNRRSQLLTTQYQMLRHAIIKVKRDRPFEINAWVVLPEHMHCIWTLPEGDDDFSSRWREIKKQFTHACGLKNIWQPRFWEHAIRNTKDYRHHVDYIYINPVKHGWVKQVSDWPFSTFHRDVARGLYPIDWAGDVTDFSAGERIIS	5.68					1.93						
MLRECDYSQALLEQVNQAISDKTPLVIQGSNSKAFLGRPVTGQTLDVRCHRGIVNYDPTELVITARVGTPLVTIEAALESAGQMLPCEPPHYGEEATWGGMVACGLAGPRRPWSGSVRDFVLGTRIITGAGKHLRFGGEVMKNVAGYDLSRLMVGSYGCLGVLTEISMKVLPRPRASLSLRREISLQEAMSEIAEWQLQPLPISGLCYFDNALWIRLEGGEGSVKAARELLGGEEVAGQFWQQLREQQLPFFSLPGTLWRISLPSDAPMMDLPGEQLIDWGGALRWLKSTAEDNQIHRIARNAGGHATRFSAGDGGFAPLSAPLFRYHQQLKQQLDPCGVFNPGRMYAEL	4.1 ± 1.8					1.22 ± 0.36	2.52 ± 0.13	3.59 ± 0.039				3.88 ± 1.7
METNIVEVENFVQQSEERRGSAFTQEVKRYLERYPNTQYVDVLLTDLNGCFRGKRIPVSSLKKLEKGCYFPASVFAMDILGNVVEEAGLGQEMGEPDRTCVPVLGSLTPSAADPEFIGQMLLTMVDEDGAPFDVEPRNVLNRLWQQLRQRGLFPVVAVELEFYLLDRQRDAEGYLQPPCAPGTDDRNTQSQVYSVDNLNHFADVLNDIDELAQLQLIPADGAVAEASPGQFEINLYHTDNVLEACDDALALKRLVRLMAEKHKMHATFMAKPYEEHAGSGMHIHISMQNNRGENVLSDAEGEDSPLLKKMLAGMIDLMPSSMALLAPNVNSYRRFQPGMYVPTQASWGHNNRTVALRIPCGDRHNHRVEYRVAGADANPYLVMAAIFAGILHGLDNELPLQEEVEGNGLEQEGLPFPIRQSDALGEFIENDHLRRYLGERFCHVYHACKNDELLQFERLITETEIEWMLKNA	3.73 ± 1.2	2.89 ± 0.19	0.535 ± 0.066		0.507	0.748	1.47	0.976				
MITHISPLGSMDMLSQLEVDMLKRTASSDLYQLFRNCSLAVLNSGSLTDNSKELLSRFENFDINVLRRERGVKLELINPPEEAFVDGRIIRALQANLFAVLRDILFVYGQIHNTVRFPNLNLDNSVHITNLVFSILRNARALHVGEAPNMVVCWGGHSINENEYLYARRVGNQLGLRELNICTGCGPGAMEAPMKGAAVGHAQQRYKDSRFIGMTEPSIIAAEPPNPLVNELIIMPDIEKRLEAFVRIAHGIIIFPGGVGTAEELLYLLGILMNPANKDQVLPLILTGPKESADYFRVLDEFVVHTLGENARRHYRIIIDDAAEVARQMKKSMPLVKENRRDTGDAYSFNWSMRIAPDLQMPFEPSHENMANLKLYPDQPVEVLAADLRRAFSGIVAGNVKEVGIRAIEEFGPYKINGDKEIMRRMDDLLQGFVAQHRMKLPGSAYIPCYEICT [P0ADR8]	5.75 ± 1.1	4.95 ± 0.11	5.02 ± 0.07	5.1 ± 0.26	4.58 ± 0.19	3.03 ± 0.13	6.01 ± 0.13	11.3 ± 0.31	5.07 ± 0.029	9.48 ± 0.11	5.93 ± 0.55	11.9 ± 0.48
MFNSDNLRLDGKCAIITGAGAGIGKEIAITFATAGASVVVSDINADAANHVVDEIQQLGGQAFACRCDITSEQELSALADFAISKLGKVDILVNNAGGGGPKPFDMPMADFRRAYELNVFSFFHLSQLVAPEMEKNGGGVILTITSMAAENKNINMTSYASSKAAASHLVRNMAFDLGEKNIRVNGIAPGAILTDALKSVITPEIEQKMLQHTPIRRLGQPQDIANAALFLCSPAASWVSGQILTVSGGGVQELN [P0AET8]	4.91 ± 0.11	4.39 ± 0.73	4.72 ± 0.18	5.48 ± 0.66	4.27 ± 0.21	3.53 ± 0.6	5.51 ± 1.1	10.2 ± 1.2	4.57 ± 0.14	7.309 ± 0.022	5.64 ± 0.42	11.8 ± 0.3
